Positions count from the first letter of the chain named. Read-outs that look alike come from different tables or passages of the source. Values belong to the binder of their own block, whether it stands above or below them.
Key:
[1] = target: T1, human CLDN18.1 (human, UniProt P56856 1-261); assay: FACS, U2OS-CLDN18.1 cells, antibody at 200 nM
T1 construct: also called claudin18.1
Method: (§1) Based on the FACS method, the binding activity of anti-CLDN18.2 antibodies for the cell line U2OS-CLDN18.1 overexpressing CLDN18.1 (SEQ ID NO: 2) was analyzed. The cell concentration was adjusted with PBS, and the U2OS-CLDN18.1 cells were added to a 96-well plate at 3×10⁵ cells/well, then the test antibodies were added to each well of the 96-well plate, the final concentration of the antibody was 200 nM, and the mixture was incubated at 4° C. for 60 min. The supernatant was discarded, the cells were washed 3 times with pre-cooled PBS buffer, PE-Goat Anti-Human IgG Fcγ (Jackson immunoresearch, Cat. No. 109-116-170) diluted at 1:200 was added at 100 μL/well, and the mixture was incubated at 4° C. for 30 min. Cells were washed 3 times with pre-cooled PBS buffer and resuspended in 100 μL of PBS buffer, and then the fluorescence signals were detected using a flow cytometer (Sartorius, iQUE3). The nonspecific binding of the anti-CLDN18.2 antibodies for U2OS-CLDN18.1 cells was measured by mean fluorescence intensity (MFI) of staining. The IgG1 isotype control antibody (prepared in-house, with the heavy and light chain amino acid sequences as set forth in SEQ ID NOs: 67 and 68 in the present disclosure) was used as the control, and 2-fold the IgG1 isotype control antibody was used as the benchmark, thus determining the presence or absence of nonspecific binding.

[2] = target: human CLDN18.2 (human); assay: cell-based or functional assay
[3] = target: T1, human CLDN18.1; assay: FACS, U2OS-CLDN18.1 cells; MFI against 2-fold the IgG1 isotype control
Method: as §1

[4] = target: human CLDN18.2 (human); assay: cell-based or functional assay; remark: listed apart in the source
[5] = target: T2, human CLDN18.2 (human); assay: FACS, KATOIII cells (natural CLDN18.2)
T2 construct: also called claudin18.2
Method: (§2) Based on the FACS method, the binding activity of anti-CLDN18.2 antibodies for the cell line U2OS-CLDN18.2 overexpressing CLDN18.2 and the cell lines KATOIII (Cell Bank of the Chinese Academy of Sciences) and NUGC-4 (Cell Bank of the Chinese Academy of Sciences) naturally expressing CLDN18.2 was analyzed.
(§3) The cell concentration was adjusted with PBS, and cells (U2OS-CLDN18.2, KATOIII, or NUGC-4 cells) were added to a 96-well plate at 3×10⁵ cells/well, then the test antibodies at different concentrations were added to each well of the 96-well plate, and the mixture was incubated at 4° C. for 60 min. […] The supernatant was discarded, the cells were washed 3 times with pre-cooled PBS buffer, PE-Goat Anti-Human IgG Fcγ (Jackson immunoresearch, Cat. No. 109-116-170) diluted at 1:200 was added at 100 μL/well, and the mixture was incubated at 4° C. for 30 min. Cells were washed 3 times with pre-cooled PBS buffer and resuspended in 100 μL of PBS buffer, and then the fluorescence signals were detected using a flow cytometer (Sartorius, iQUE3). The binding ability of the anti-CLDN18.2 antibodies for CLDN18.2 was measured by mean fluorescence intensity (MFI) of staining.

[6] = target: T2, human CLDN18.2; assay: FACS, U2OS-CLDN18.2 cells
Method: as §2, §3

[7] = target: T2, human CLDN18.2; assay: cell-based or functional assay; remark: listed apart in the source
[8] = target: T2, human CLDN18.2; assay: cell-based or functional assay; remark: listed apart in the source
[9] = target: T2, human CLDN18.2; assay: FACS, KATOIII cells (natural CLDN18.2); remark: listed apart in the source
Method: (§4) Based on the FACS method, the binding activity of anti-CLDN18.2 humanized antibodies for the cell lines KATOIII (Cell Bank of the Chinese Academy of Sciences) and NUGC-4 (Cell Bank of the Chinese Academy of Sciences) naturally expressing CLDN18.2 was analyzed. […] See Example 3 for the specific method.

[10] = target: T2, human CLDN18.2; assay: cell-based or functional assay; remark: listed apart in the source
[11] = target: T2, human CLDN18.2; assay: cell-based or functional assay; remark: listed apart in the source
[12] = target: T2, human CLDN18.2; assay: FACS, NUGC-4 cells (natural CLDN18.2)
Method: as §4

[13] = target: T2, human CLDN18.2; assay: FACS, NUGC-4 cells (natural CLDN18.2); remark: listed apart in the source
Method: as §2, §3

[14] = target: T2, human CLDN18.2; assay: cell-based or functional assay; remark: listed apart in the source
[15] = target: T2, human CLDN18.2; assay: FACS, U2OS-CLDN18.2 cells; remark: listed apart in the source
Method: as §2, §3

[16] = target: T2, human CLDN18.2; assay: FACS, KATOIII cells (natural CLDN18.2); remark: listed apart in the source
Method: as §4

[17] = target: T2, human CLDN18.2; assay: cell-based or functional assay; remark: listed apart in the source
[18] = target: T2, human CLDN18.2; assay: FACS, NUGC-4 cells (natural CLDN18.2); remark: listed apart in the source
Method: as §4

[19] = target: T2, human CLDN18.2; assay: FACS, NUGC-4 cells (natural CLDN18.2); remark: listed apart in the source
Method: as §2, §3

[20] = target: T2, human CLDN18.2; assay: FACS, KATOIII cells (natural CLDN18.2); remark: listed apart in the source
Method: as §2, §3

- MFI [1]: 7560
- ADCC EC50, PBMC effector cells, KATOIII target cells [2]: 820 pM
- ADCC EC50, PBMC effector cells, NIH-3T3-CLDN18.2 target cells [2]: 540 pM
- ADCC EC50, PBMC effector cells, NUGC-4 target cells [2]: 3260 pM
- binding result [3]: no binding (tested: 200 nM)
- ADCC EC50, Jurkat-CD16a v158-NFAT-luciferase effector cells, KATOIII target cells [4]: 30 pM
- ADCC EC50, Jurkat-CD16a v158-NFAT-luciferase effector cells, NUGC-4 target cells [4]: 121 pM
- ADCC EC50, Jurkat-CD16a v158-NFAT-luciferase effector cells, U2OS-CLDN18.2 target cells [4]: 28 pM
- EC50 [5]: 3310 pM
- EC50 [6]: 7780 pM
- ADCC EC50, Jurkat-CD16a v158-NFAT-luciferase effector cells, KATOIII target cells [7]: 43 pM
- ADCC EC50, Jurkat-CD16a v158-NFAT-luciferase effector cells, U2OS-CLDN18.2 target cells [7]: 18 pM
- CDC EC50, KATOIII target cells [8]: 112 pM
- CDC EC50, U2OS-CLDN18.2 target cells [8]: 1580 pM
- EC50 [9]: 6630 pM
- ADCC EC50, PBMC effector cells, KATOIII target cells [10]: 38400 pM
- ADCC EC50, PBMC effector cells, NUGC-4 target cells [10]: 440 pM
- CDC EC50, NIH-3T3-CLDN18.2 target cells [11]: 270 pM
- EC50 [12]: 44100 pM
- EC50 [13]: 21200 pM
B1: chimeric antibody xi28G3 (antibody, human IgG1, kappa, V domains shown)
VH: EIQLQQTGPELVKPGASVTISCKTSGYSFTDYLMLWVKQSHGKSLEWIGNINPYYGRTTYNLKFKGKATLTVDRSSSTAYMQLNSLTSEDSAVYYCARDGYSLRNAMDYWGQGTSVTVSS
VL: DIVMTQSPYSLSVSTGEKVTMSCKSSQSLFNSGNQKNYLAWYQQKPGQPPKLLIYGASTRESGVPDRFTGSGSGTDFTLTISSVQAEDLALYYCQNAHSYPYTFGGGTKLEIKR
notes: Mouse variable regions on human IgG1/kappa; defucosylated, expressed in FUT8-knockout CHO-S cells; also called chimeric 28G3
- ADCC Maximum killing (%), PBMC effector cells, KATOIII target cells [2]: 29.9%
- ADCC Maximum killing (%), PBMC effector cells, NIH-3T3-CLDN18.2 target cells [2]: 47%
- ADCC Maximum killing (%), PBMC effector cells, NUGC-4 target cells [2]: 22.5%
- ADCC Maximum killing (%), PBMC effector cells, KATOIII target cells [10]: 76.8%
- ADCC Maximum killing (%), PBMC effector cells, NUGC-4 target cells [10]: 43.3%

- MFI [1]: 7070
- CDC EC50, NIH-3T3-CLDN18.2 target cells [14]: 290 pM
- binding result [3]: no binding (tested: 200 nM)
- ADCC EC50, Jurkat-CD16a v158-NFAT-luciferase effector cells, KATOIII target cells [4]: 30 pM
- ADCC EC50, Jurkat-CD16a v158-NFAT-luciferase effector cells, NUGC-4 target cells [4]: 147 pM
- ADCC EC50, Jurkat-CD16a v158-NFAT-luciferase effector cells, U2OS-CLDN18.2 target cells [4]: 32 pM
- EC50 [15]: 4470 pM
- EC50 [16]: 7020 pM
- ADCC EC50, Jurkat-CD16a v158-NFAT-luciferase effector cells, NIH-3T3-CLDN18.2 target cells [17]: 14 pM
- ADCC EC50, Jurkat-CD16a v158-NFAT-luciferase effector cells, NUGC-4 target cells [17]: ~14 pM
- CDC EC50, KATOIII target cells [8]: 127 pM
- CDC EC50, U2OS-CLDN18.2 target cells [8]: 1070 pM
- ADCC EC50, PBMC effector cells, NUGC-4 target cells [10]: 800 pM
- EC50 [18]: 12500 pM
- EC50 [19]: 12500 pM
- EC50 [20]: 5970 pM
B2: chimeric antibody xi40F6 (antibody, human IgG1, kappa, V domains shown)
VH: QVQLKESGPGLVAPSQSLSITCTVSGFSLTSYGVYWVRQSPGKGLEWLGVVWAGGNTNYNSALMSRLSISKDNSKSQVFLKMNSLQTDDTAMYYCARDRGRLLAMDYWGQGTSVTVSS
VL: B1 VL with I2V, Y9S, T15A, F30L, L91V, A97D, S99F, Y100F, Y102F, G106S
notes: Mouse variable regions on human IgG1/kappa; defucosylated, expressed in FUT8-knockout CHO-S cells; also called chimeric 40F6
- ADCC Maximum killing (%), PBMC effector cells, NUGC-4 target cells [10]: 45.2%

- MFI [1]: 8940
- binding result [3]: no binding (tested: 200 nM)
- ADCC EC50, Jurkat-CD16a v158-NFAT-luciferase effector cells, KATOIII target cells [4]: 20 pM
- ADCC EC50, Jurkat-CD16a v158-NFAT-luciferase effector cells, NUGC-4 target cells [4]: 83 pM
- ADCC EC50, Jurkat-CD16a v158-NFAT-luciferase effector cells, U2OS-CLDN18.2 target cells [4]: 20 pM
- EC50 [5]: 3680 pM
- EC50 [6]: 25100 pM
- CDC EC50, KATOIII target cells [8]: 103 pM
- CDC EC50, U2OS-CLDN18.2 target cells [8]: 2090 pM
- ADCC EC50, PBMC effector cells, NUGC-4 target cells [10]: 680 pM
- EC50 [13]: 20000 pM
B3: chimeric antibody xi22F12 (antibody, human IgG1, kappa, V domains shown)
VH: B2 VH with S40P, V51I, N56S, S70N, A104S
VL: DIVMTQSPSSLSVSAGEKVTMSCRSSQSLLNSGNQKNYLAWYQQKPGQPPKLLIYGASTRESGVPDRFTGSGSGTDFTLTIGSVQAEDLAVYYCQNVHFFPFTFGSGTKLEIKR
notes: Mouse variable regions on human IgG1/kappa; defucosylated, expressed in FUT8-knockout CHO-S cells; also called chimeric 22F12
- ADCC Maximum killing (%), PBMC effector cells, NUGC-4 target cells [10]: 46.1%
